# B1: PDK1 (protein)
# chain: not shown
# modifications: L2 lipoylation Lys to Ala, lipoylated, DANS-As-labeled
# B2: E2 L1L2S-ML1 L1L2S tridomain (protein)
# chain: HQKVPLPSLSPTMQAGTIARWEKKEGDKINEGDLIAEVETDKATVGFESLEECYMAKILVAEGTRDVPIGAIICITVGKPEDIEAFKNYTLDSSAAPTPQAAPAPTPAATASPPTPSAQAPGSSYPPHMQVLLPALSPTMTMGTVQRWEKKVGEKLSEGDLLAEIETDKATIGFEVQEEGYLAKILVPEGTRDVPLGTPLCIIVEKEADISAFADYRPTEVTDLKPQVPPPTPPPVAAVPPTPQPLAPTPSAPCPATPAGPKGRVFVSPLAKKLAVEKGIDLTQVKGTGPDGRITKKDIDSFV
# B3: PDK1 (protein)
# chain: not shown
# modifications: lipoylated, DANS-As-labeled L1
# B4: PDK3 (protein)
# chain: not shown
# modifications: lipoylated, DANS-As-labeled L1
# B5: PDK1 (protein)
# chain: not shown
# modifications: L1 lipoylation Lys to Ala, lipoylated, DANS-As-labeled
# B6: PDK3 (protein)
# chain: not shown
# modifications: L2 lipoylation Lys to Ala, lipoylated, DANS-As-labeled
# B7: PDK4 (protein)
# chain: not shown
# modifications: L1 lipoylation Lys to Ala, lipoylated, DANS-As-labeled
# B8: E2 L1 L1 lipoyl domain (protein)
# chain: HQKVPLPSLSPTMQAGTIARWEKKEGDKINEGDLIAEVETDKATVGFESLEECYMAKILVAEGTRDVPIGAIICITV
# B9: PDK3 (protein)
# chain: not shown
# modifications: lipoylated, DANS-As-labeled L2S
# B10: E2 L2S L2S didomain (protein)
# chain: HMQVLLPALSPTMTMGTVQRWEKKVGEKLSEGDLLAEIETDKATIGFEVQEEGYLAKILVPEGTRDVPLGTPLCIIVEKEADISAFADYRPTEVTDLKPQVPPPTPPPVAAVPPTPQPLAPTPSAPCPATPAGPKGRVFVSPLAKKLAVEKGIDLTQVKGTGPDGRITKKDIDSFV
# B11: PDK3 (protein)
# chain: not shown
# modifications: L1 lipoylation Lys to Ala, lipoylated, DANS-As-labeled
# B12: PDK4 (protein)
# chain: not shown
# modifications: L2 lipoylation Lys to Ala, lipoylated, DANS-As-labeled
# B13: PDK4 (protein)
# chain: not shown
# modifications: lipoylated, DANS-As-labeled L1
# B14: PDK4 (protein)
# chain: not shown
# modifications: dapoxyl-labeled L3S'
# B15: PDK4 (protein)
# chain: not shown
# modifications: lipoylated, DANS-As-labeled L2S
# B16: PDK1 (protein)
# chain: not shown
# modifications: lipoylated, DANS-As-labeled L2S
# B17: E3BP L3S' L3S' didomain (protein)
# chain: PIKILMPSLSPTMEEGNIVKWLKKEGEAVSAGDALCEIETDKAVVTLDASDDGILAKIVVEEGSKNIRLGSLIGLIVEEGEDWKHVEIPKDVGPPPPVSKPSEPRPSPEPQISIPVKKEHIPGTLRFRLSPAARNILEKHSLDASQGTATGPRGIFTKEDALKLV
# B18: PDK4 (protein)
# chain: not shown
# modifications: lipoylated, DANS-As-labeled L3S'
# B19: PDK3 (protein)
# chain: not shown
# modifications: lipoylated, DANS-As-labeled L3S'
# B20: E2 L1L2S-ML2 L1L2S tridomain (protein)
# chain: B2 chain
# Key:
# [1] = target: B20; assay: fluorescence titration
# PDK2 [2] = target: T1, PDK2 (Homo sapiens, UniProt Q15119); assay: fluorescence titration
# E2 L1 L1 lipoyl domain = target: B8; assay: fluorescence titration
# [3] = target: B2; assay: fluorescence titration
# E2 L2S L2S didomain = target: B10; assay: fluorescence titration
# E3BP L3S' L3S' didomain [4] = target: B17; assay: fluorescence titration
# PDK2 [5] = target: T1, PDK2; assay: fluorescence titration (quenching)
# E3BP L3S' L3S' didomain [6] = target: B17; assay: fluorescence titration (quenching)
binder,measurement,setting,value
B1,Kd,[1],3620 nM
B2,Kd,PDK2 [2],890 nM
B3,Kd,E2 L1 L1 lipoyl domain,4430 nM
B4,Kd,E2 L1 L1 lipoyl domain,620 nM
B5,Kd,[3],2100 nM
B6,Kd,[1],396 nM
B7,Kd,[3],270 nM
B8,Kd,PDK2 [2],910 nM
B9,Kd,E2 L2S L2S didomain,1210 nM
B10,Kd,PDK2 [2],1380 nM
B11,Kd,[3],540 nM
B12,Kd,[1],397 nM
B13,Kd,E2 L1 L1 lipoyl domain,350 nM
B14,Kd,E3BP L3S' L3S' didomain [4],5.02 µM
B15,Kd,E2 L2S L2S didomain,2070 nM
B16,Kd,E2 L2S L2S didomain,17100 nM
B17,Kd,PDK2 [5],25 nM
same,Kd,PDK2 [2],2070 nM
B18,Kd,E3BP L3S' L3S' didomain [4],5.93 µM
B19,Kd,E3BP L3S' L3S' didomain [6],103 nM
B20,Kd,PDK2 [2],640 nM

# — article PMC5322387 (2017)
